{"source": "patent US20050074826A1", "about": "(published 2005)", "binders": {"B1": {"name": "CCX-CKR2, mouse (on E13 fetal liver cells) (receptor, UniProt P56485 1-362, looked up)", "chain": "MDVHLFDYAEPGNYSDINWPCNSSDCIVVDTVQCPTMPNKNVLLYTLSFIYIFIFVIGMIANSVVVWVNIQAKTTGYDTHCYILNLAIADLWVVITIPVWVVSLVQHNQWPMGELTCKITHLIFSINLFGSIFFLACMSVDRYLSITYFTGTSSYKKKMVRRVVCILVWLLAFFVSLPDTYYLKTVTSASNNETYCRSFYPEHSIKEWLIGMELVSVILGFAVPFTIIAIFYFLLARAMSASGDQEKHSSRKIIFSYVVVFLVCWLPYHFVVLLDIFSILHYIPFTCQLENVLFTALHVTQCLSLVHCCVNPVLYSFINRNYRYELMKAFIFKYSAKTGLTKLIDASRVSETEYSALEQNTK", "notes": "whole, on cells; also called SDF-1 receptor on E13 fetal liver cells"}, "B2": {"name": "CXCR4, human (receptor, UniProt P61073 1-352, looked up)", "chain": "MEGISIYTSDNYTEEMGSGDYDSMKEPCFREENANFNKIFLPTIYSIIFLTGIVGNGLVILVMGYQKKLRSMTDKYRLHLSVADLLFVITLPFWAVDAVANWYFGNFLCKAVHVIYTVNLYSSVLILAFISLDRYLAIVHATNSQRPRKLLAEKVVYVGVWIPALLLTIPDFIFANVSEADDRYICDRFYPNDLWVVVFQFQHIMVGLILPGIVILSCYCIIISKLSHSKGHQKRKALKTTVILILAFFACWLPYYIGISIDSFILLEIIKQGCEFENTVHKWISITEALAFFHCCLNPILYAFLGAKFKTSAQHALTSVSRGSSLKILSKGKRGGHSSVSTESESSSFHSS", "notes": "whole, on cells; also called CXCR4 on CEM-NKr cells; leukocyte CXCR4"}, "B3": {"name": "human I-TAC (ligand, UniProt O14625 22-94, looked up)", "chain": "FPMFKRGRCLCIGPGVKAVKVADIEKASIMYPSNNCDKIEVIITLKENKGQRCLNPKSKQARLIIKKVERKNF", "notes": "also called hI-TAC; CXCL11"}, "B4": {"name": "mouse I-TAC (ligand, UniProt Q9JHH5 22-100, looked up)", "chain": "FLMFKQGRCLCIGPGMKAVKMAEIEKASVIYPSNGCDKVEVIVTMKAHKRQRCLDPRSKQARLIMQAIEKKNFLRRQNM", "notes": "also called mI-TAC; I-TAC (mouse protein)"}, "B5": {"name": "MIG (ligand, UniProt Q07325 23-125, looked up)", "chain": "TPVVRKGRCSCISTNQGTIHLQSLKDLKQFAPSPSCEKIEIIATLKNGVQTCLNPDSADVKELIKKWEKQVSQKKKQKNGKKHQKKKVLKVRKSQRSRQKKTT", "notes": "also called monokine induced by gamma interferon; CXCR3 ligand MIG"}}, "key": {"human SDF-1α [1]": {"biological_target": "T1, human SDF-1α (human, UniProt P48061-2 22-89)", "T1 construct": "also called hSDF-1α; SDF-1a", "T1 sequence (P48061 22-89 limits assumed)": "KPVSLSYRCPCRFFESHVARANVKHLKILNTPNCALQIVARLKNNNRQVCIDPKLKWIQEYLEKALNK", "assay": "radioligand binding on mouse E13 fetal liver cells"}, "human SDF-1α [2]": {"biological_target": "T1, human SDF-1α", "assay": "DisplaceMax displacement of 125I SDF-1α on CEM-NKr cells (CXCR4)"}, "[3]": {"biological_target": "B1", "assay": "competition with radiolabeled human SDF-1 on mouse E13 fetal liver cells"}, "CXCR4, human": {"biological_target": "B2", "assay": "dose response competition with 125I SDF-1α on CEM-NKr cells (CXCR4)", "experimental": "Binding Analysis. […] Small molecules were included in some assays, where indicated. In these assays the compound was added to the plate to the indicated concentration followed by the addition of radiolabeled chemokine. All assays were then incubated for 3 hrs at 4° C. with gentle agitation. Following incubation in all binding assays, reactions were aspirated onto PEI-treated GF/B glass filters (Packard) using a cell harvester (Packard) and washed twice (25 mM HEPES, 500 mM NaCl, 1 mM CaCl₂, 5 mM MgCl₂, adjusted to pH 7.1). Scintillant (MicroScint 10, Packard) was added to the wells, and the filters were counted in a Packard Topcount scintillation counter."}, "CCX-CKR2 (RDC1), human [4]": {"biological_target": "T2, CCX-CKR2 (RDC1), human (human, UniProt P25106 1-362)", "T2 construct": "also called CCX-CR2; SDF1 receptor on MCF-7 cells", "T2 sequence (P25106 whole entry)": "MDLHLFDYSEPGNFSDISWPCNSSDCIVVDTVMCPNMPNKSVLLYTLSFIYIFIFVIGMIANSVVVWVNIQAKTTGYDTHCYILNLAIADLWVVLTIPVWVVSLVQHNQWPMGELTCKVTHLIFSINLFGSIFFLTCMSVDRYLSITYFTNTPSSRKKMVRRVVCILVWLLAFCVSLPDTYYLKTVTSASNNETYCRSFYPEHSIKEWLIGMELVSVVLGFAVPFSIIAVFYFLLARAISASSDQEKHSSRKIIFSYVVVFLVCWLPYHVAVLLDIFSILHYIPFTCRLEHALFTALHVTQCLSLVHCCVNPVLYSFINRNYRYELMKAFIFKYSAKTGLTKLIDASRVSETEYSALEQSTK", "assay": "homologous competition with 125I I-TAC on MCF-7 cells, medium alone", "experimental": "(§1) Small molecules were included in some assays, where indicated. In these assays the compound was added to the plate to the indicated concentration followed by the addition of radiolabeled chemokine. All assays were then incubated for 3 hrs at 4° C. with gentle agitation. Following incubation in all binding assays, reactions were aspirated onto PEI-treated GF/B glass filters (Packard) using a cell harvester (Packard) and washed twice (25 mM HEPES, 500 mM NaCl, 1 mM CaCl₂, 5 mM MgCl₂, adjusted to pH 7.1). Scintillant (MicroScint 10, Packard) was added to the wells, and the filters were counted in a Packard Topcount scintillation counter. Data were analyzed and plotted using Prism (GraphPad Prism version 3.0a for Macintosh, GraphPad Software)."}, "CCX-CKR2 (RDC1), human [5]": {"biological_target": "T2, CCX-CKR2 (RDC1), human", "assay": "competition with 125I I-TAC on MCF-7 cells", "experimental": "as §1"}}, "data": [{"binder": "B1", "values": [{"measurement": "binding result", "setting": "human SDF-1α [1]", "result": "binds"}]}, {"binder": "B2", "values": [{"measurement": "binding result", "setting": "human SDF-1α [2]", "result": "binds"}]}, {"binder": "B3", "values": [{"measurement": "binding result", "setting": "[3]", "result": "binds"}, {"measurement": "binding result", "setting": "CXCR4, human", "result": "no binding"}, {"measurement": "IC50", "setting": "CCX-CKR2 (RDC1), human [4]", "result": 1, "unit": "nM"}]}, {"binder": "B4", "values": [{"measurement": "binding result", "setting": "[3]", "result": "binds"}]}, {"binder": "B5", "values": [{"measurement": "binding result", "setting": "CCX-CKR2 (RDC1), human [5]", "result": "no binding"}]}]}
